The values that follow come from publication PMC6327041 (Nature Communications, 2019).

Changes are numbered by the printed parent chain. Read-outs that look alike come from different tables or passages of the source.

Test [1] deals with T1, S287-K347 PHD1 (KDM5A, GST-PHD1) (Homo sapiens, UniProt P29375).
T1 construct: Expression of GST-PHD1 (Ser287-Lys347); GST (N); made in house; host or cells: E. coli BL21(DE3)
T1 sequence (P29375 287-347): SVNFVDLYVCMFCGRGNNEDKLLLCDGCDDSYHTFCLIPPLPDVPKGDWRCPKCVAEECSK
The test is described as follows: Fluorescence polarization binding to PHD1 S287-K347. Here is the method: (§1) All PHD1 constructs used (Val291-[…], S287-K347, and S287-K347 D292A) (Supplementary Figure 1) were cloned into a pET41a vector and expressed in BL21(DE3) E. coli cells. Expression and purification of all mutants followed the same protocol. Specifically, cells were induced with 0.4 mM IPTG and grown at 18 °C overnight before the pellet was collected. The cells were resuspended in lysis buffer (140 mM NaCl, 2.7 mM KCl, 10 mM Na2HPO4, 1.8 mM KH2PO4, 0.5 mM TCEP, 50 µM ZnCl2, 1 mM phenylmethylsulfonyl fluoride (PMSF), pH 7.3), lysed by sonication and centrifuged. The supernatant was purified using Glutathione Sepharose 4B resin, washed with high salt buffer (50 mM HEPES, 700 mM KCl, 10% glycerol, 0.5 mM TCEP, […], 1 mM PMSF, pH 8) and low salt buffer (50 mM HEPES, 150 mM KCl, 10% glycerol, 0.5 mM TCEP, […], 1 mM PMSF, pH 8) and recovered by elution using low salt buffer with 30 mM glutathione. The sample was then concentrated and further purified by size-exclusion chromatography using a Hiload 26/60 Superdex 75 gel filtration column. Samples were eluted into 40 mM HEPES, 50 mM KCl, 0.5 mM TCEP, and […] and flash-frozen.
Data from direct FP measurements were fitted to equation 1: FPobs=FPmaxPHD1+FPminKd/Kd+[PHD1]
Data from competition-based FP assays were fitted to equation 2: FPobs=KiFPmaxPHD1+FPminKd+FPminKd[I]/KiKd+[PHD1]+Kd[I] where FPobs is the observed FP, FPmax is the maximum FP value, FPmin is the minimum FP value, [PHD1] is concentration of PHD1, Kd is the dissociation constant, Ki is the inhibition constant referring to the competing peptide and [I] is the competing peptide concentration.
In general terms: Polarisation of emitted light reports the rotation of a fluorescent probe.

The next test addresses T2, KDM5A1-797 (Homo sapiens, UniProt P29375).
T2 construct: KDM5A1-797 was cloned into a pFASTBAC HTA vector; His (N, cleaved yes); made in house; host or cells: Sf21 insect cells (baculovirus)
T2 sequence (P29375 1-797): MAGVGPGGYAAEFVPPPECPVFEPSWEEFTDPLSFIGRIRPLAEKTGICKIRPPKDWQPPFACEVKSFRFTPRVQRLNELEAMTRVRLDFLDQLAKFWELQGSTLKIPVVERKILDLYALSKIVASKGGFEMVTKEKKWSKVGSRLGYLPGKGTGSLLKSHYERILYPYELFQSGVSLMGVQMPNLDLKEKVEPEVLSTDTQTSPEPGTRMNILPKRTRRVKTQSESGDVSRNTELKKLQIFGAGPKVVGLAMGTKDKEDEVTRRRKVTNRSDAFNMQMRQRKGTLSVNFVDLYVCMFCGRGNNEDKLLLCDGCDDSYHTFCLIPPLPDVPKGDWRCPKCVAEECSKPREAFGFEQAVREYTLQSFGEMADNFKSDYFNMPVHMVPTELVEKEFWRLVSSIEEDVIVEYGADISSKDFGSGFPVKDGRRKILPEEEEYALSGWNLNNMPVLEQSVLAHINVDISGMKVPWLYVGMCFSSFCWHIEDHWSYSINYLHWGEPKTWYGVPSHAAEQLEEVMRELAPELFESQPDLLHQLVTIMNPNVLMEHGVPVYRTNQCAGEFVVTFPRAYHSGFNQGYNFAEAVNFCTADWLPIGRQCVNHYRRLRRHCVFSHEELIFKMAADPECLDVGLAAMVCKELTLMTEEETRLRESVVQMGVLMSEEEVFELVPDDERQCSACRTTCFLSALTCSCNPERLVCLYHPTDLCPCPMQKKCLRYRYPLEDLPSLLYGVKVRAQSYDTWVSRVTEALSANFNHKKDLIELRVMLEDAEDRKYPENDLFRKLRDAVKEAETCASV
The test is described as follows: KDM5A demethylation, FDH-coupled formaldehyde release assay. As to conditions: for kcat / Km: 1 μM KDM5A, pH 7.5, room temperature, n ≥ 3, s.e.m.; for Km: read-out: Km. The class given is biochemical. How it is done:
WT KDM5A1-797 was expressed in Sf21 cells following Invitrogen Bac-to-Bac baculovirus expression system protocol. KDM5A1-797 was cloned into a pFASTBAC HTA vector. Purified bacmid was transfected in Sf21 cells. Approximately […] cells per well of a six-well dish were allowed to attach in 2 ml of SF-900 II SFM media containing 50 U ml^−1 penicillin and 50 μg ml^−1 streptomycin. While cells attached, 8 μl of Cellfectin II reagent (Invitrogen) in 100 μl of unsupplemented Grace’s medium was mixed with ~2–5 μg of bacmid in 100 μl of unsupplemented Grace’s medium and incubated for 15–30 min at 25 °C. Once cells were attached, media was removed and cells were washed with 2 ml of Grace’s unsupplemented media. The bacmid DNA:Cellfectin mixture was then diluted to 1 ml with Grace’s unsupplemented media and added to the well. Cells with bacmid:Cellfectin II mixture were incubated for 5 h at 27 °C. After 5 h of incubation, bacmid:Cellfectin mixture was removed and replaced with 2 ml of SF-900 II SFM 50 U ml^−1 penicillin and 50 μg ml^−1 streptomycin. Transfected cells were incubated 3–5 days or until signs of viral infection were observed. After transfection, the supernatant was spun down to remove the dead cells. The supernatant was then sterile filtered to obtain the P1 viral stock. To make P2, 20 ml of […] at ~2 × 10^6 cells per ml of sf21 was infected with 2 ml of P1 virus and incubated for 48–60 h. After 56 h, the cells were spun down and the supernatant was collected and sterile filtered to obtain P2 viral stock. Similarly, P3 viral stock from P2 viral stock was obtained. Generally, 1 l of Sf21 at 2 × 10^6 cells per ml was infected with ~40 ml of P3 virus for ~48–56 h. Cells were then collected and resuspended in the lysis buffer (25 mM HEPES pH 7.9, 350 mM NaCl, 5 mM KCl, 1.5 mM MgCl2, 10 mM imidazole, aprotinin 2 μg ml^−1, leupeptin 3 μg ml^−1, pepstatin 3 μg ml^−1, and 1 mM PMSF). Cells were homogenized by emulsiflex. After lysis, the supernatant was recovered by centrifuging at 35k r.p.m. for 45 min, and incubated with cobalt resin equilibrated in lysis buffer for 1 h at 4 °C. After incubation the resin was washed with wash buffer (25 mM HEPES, pH 7.9, 350 mM NaCl, 0.5 mM MgCl2, 10% glycerol, 10 mM imidazole, aprotinin 2 μg ml^−1, leupeptin 3 μg ml^−1, pepstatin 3 μg ml^−1, and 1 mM PMSF). His-KDM5A was eluted with elution buffer (25 mM HEPES pH 7.9, 100 mM NaCl, 0.5 mM MgCl2, 10% glycerol, 100 mM imidazole, aprotinin 2 μg ml^−1, leupeptin 3 μg ml^−1, pepstatin 3 μg ml^−1, and 1 mM PMSF). The His-tag was removed by overnight incubation with TEV protease at 4 °C in the dialysis buffer (25 mM HEPES, pH 7.9, 100 mM NaCl, and 2 mM DTT). After cleavage, protein was further purified by size-exclusion chromatography using a S200 column. Purified KDM5A was eluted, aliquoted and stored at −80 °C in 40 mM HEPES, pH 7.9, 50 mM KCl.
Michaelis–Menten parameters were determined using Graphpad Prism.

The next test concerns PHD1KDM5B. As to conditions: cited from earlier work. From the text:
This study presents a significant amount of biochemical and biophysical work to reveal the molecular basis underlying the allosteric enhancement in a quantitative manner. […] H ...

Test [2] addresses T3, S287-K347 PHD1 D292A (KDM5A, GST-PHD1) (Homo sapiens, UniProt P29375, D292A).
T3 construct: S287-K347, and S287-K347 D292A; GST (N); made in house; host or cells: E. coli BL21(DE3)
T3 sequence (P29375 287-347 D292A): T1 sequence (P29375 287-347) with D6A
Description: Fluorescence polarization binding to PHD1 S287-K347 D292A. As to conditions: compared to WT PHD1S287-K347. Here is the method: as §1
Data from direct FP measurements were fitted to equation 1: FPobs=FPmaxPHD1+FPminKd/Kd+[PHD1] […]

With `C[C@H](N)C(=O)N[C@@H](C)C(=O)N[C@H](C(=O)N[C@@H](CCCCN)C(=O)N[C@@H](CCC(N)=O)C(=O)N[C@H](C(=O)N[C@@H](C)C(=O)N[C@@H](CCCNC(=N)N)C(=O)N[C@@H](CCCCN)C(=O)N[C@@H](CO)C(=O)O)[C@@H](C)O)[C@@H](C)O` [H3R2A], in test [1] (modified H3 10mer N-terminal peptides, competition-based FP, NB = no binding, n ≥ 3, s.e.m., construct not stated in legend, read-out: PHD1 binding Kd (Fig. 4a)), the dissociation constant (Kd) (in general, the concentration at which binding is half-saturated) was found to be 205 ± 73 µM.

For “Ac-H3K4me2 21mer: N-terminally acetylated 21mer H3K4me2 peptide (Ala1-Ala21)”, the “reduction in Km on addition of effector peptide” value with KDM5A1-797 (38 µM H3 10mer effector peptide vs none) is on record as “fivefold”. Also, in the test with KDM5A1-797 (+H3 10mer peptide (38 µM)), the specificity constant (kcat/Km) (commonly the second-order rate constant that governs catalysis at low substrate concentration) came out at 427 ± 95 M⁻¹ s⁻¹; the kcat (as a rule, the maximal rate divided by the concentration of active sites) amounted to 0.0233 ± 0.001 s⁻¹; the Km (commonly the concentration of substrate that gives half-maximal velocity) is 54.7 ± 9.9 µM. Further, in the test with KDM5A1-797 (No effector peptide), the kcat/Km was determined as 98 ± 34 M⁻¹ s⁻¹, the kcat turned out to be 0.0225 ± 0.00183 s⁻¹ and the Km stood at 229 ± 60 µM. Also, the “binding to PHD1 domain” value in test [1] (FP, at the concentrations used in our assays (Supplementary Figure 3a: Ac-H3K4me2-FAM, PHD1S287-K347)) was “does not bind to the PHD1 domain”.

For “H3K4me0: C-terminal fluorescently labeled unmodified H3 10mer peptide, affinity by direct FP”, the “decrease in affinity for H3 peptide on mutation of the analogous Asp in KDM5B PHD1” value with PHD1KDM5B (PHD1KDM5B Asp mutant vs WT, ref Klein Cell Rep 2014 and Zhang Protein Cell 2014) is listed as “approximately 6 fold”. The “discrimination of WT H3 over H3K4A peptide” value in the test with PHD1KDM5B (PHD1KDM5B) was 2.5 fold. Moreover, the “preference for WT H3 peptide over H3K4A peptide” value in test [1] (ratio of Kd) came out at 2.3 fold. Moreover, the entries for the “decrease in affinity, D292A vs WT PHD1S287-K347” value in test [2] (listed as H3 peptide) and in test [2] (listed as unmodified H3 peptide) were 7.6 fold and “approximately eightfold”, respectively.
